This data set is described as follows: soluble fraction after stress (log2 fold change); higher = more stays soluble; pooled small domains, quantitative proteomics. The settings on record: stress: pH 4. The gist of the method: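 Custom libraries of small protein domains were pooled and measured with high-throughput quantitative proteomics after pH 4 stress. The read-out is the fold change in the amount of each domain that stays soluble after the acid stress, taken as a measure of aggregation propensity. Fold changes are on a log2 scale, and higher values mean more of the domain stayed soluble.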
Take “HMYPEETVNKILDVSMQLFLEKGYEHTSIQDIVNHLGGLSKGAIYHHFKSKEDILDGVMNKLYQNN”: the “soluble fraction (log2)” value is -0.941.
“HMYPGQILEIYLDEIKRLYLNGLSSADIFAEIKEGSIPSVKKAIRSMKDGSAPVKITEAEESTRIAPS”: the “soluble fraction (log2)” value is -0.785.
The same measure for “HMYPTPAAANRHFLDKWGHQEAYLGKVLNSRSRASEILNGKRPLSLSDLRTLRDNLGIPVDLLL”: -0.421.
For the sequence “HMYQKERDKEISEIETFLKKITNANGTRAYSDESIADMSYVELLNLYEGITSKLTEEEIENI”, the “soluble fraction (log2)” value was -0.644.
“HMYQPLYEQIKRMLTQSLIDGEWKAGEMIPSEMELAARFKVSQGTVRKAIDELVSENILMRRQGKGTFVH”: the “soluble fraction (log2)” value stood at 0.22.
“HMYSDDNKSILNLIDNLFNKENIKIDINAKKLLSNYLGVDRLVTKGEIEKAILFAGTKKHLSIEDISAFLS”: the “soluble fraction (log2)” value was -0.992.
As for “HMYSFPHQLLKLRTEKQLSQAELATRLFVSRQAVSKWENGDAEPSIDKLILLAKVFNVSLDRLILGT”, the “soluble fraction (log2)” value is 0.18.
The same measure for “HMYSIDNPPDWLKNLPKGAIRIGVEVFNQVLSKADDEDRARMAAWSAIKAKYEKADDGQWQPKAA”: 0.221; for “HMYSNDEIVNYLKNYIFDNFNLNELSDEELEEKIAELVQQQFAGQLLSLDEKVKLVNQVYSSIR”: -0.139.
Consider “HMYSRQRDLILKALRENVVHPTADFIYTVLKEKEPNLSLATVYRNLNLLANEGIIRKIEGLDGVAHFDH”, for which the “soluble fraction (log2)” value came to 0.059.
Consider “HMYSVVGKKGIVIEDINYSTGTGQIKSEGEVWSAKTNEQINIPKGTEIEIESIDGVKVIVKPL”, for which the “soluble fraction (log2)” value was found to be 0.221.
On to “HMYTDGVPALTDLKKESKPGRRQYVGVEDIPKVLGGLGITILSTSKGLMSGHQAKKKNIGGELIASV”, for which the “soluble fraction (log2)” value was -0.0153.
With “HMYTEIDDVKDLLSKIPSVNKLTTADRGMVQAARNAYDALDEDQKLYITIADVEKFNAAVEWMEEH”, the “soluble fraction (log2)” value was -0.523.
As to “HMYTVRDGDTVFGILNRFGVSLDELLSLNPELSNGLKAGMVLKIK”, the “soluble fraction (log2)” value was -1.13.
Consider “HMYVADVVGMGIKDALYILENQGLRVVFTGKGVVKNQSIAVGEKIIKGEKIVLML”, for which the “soluble fraction (log2)” value was -0.723.
In the case of “HMYVQDPVDRLVLESALRLLREQEREIIFLHLVAGLKHREIAGLLHLPLSTVLSGYRRALTKMKSYLEE”, the “soluble fraction (log2)” value was 0.0239.
The same measure for “HMYVTGETIRHLRTQRRMTQEQLAETLGVTGKAVSKWETGRGFPDMSLLEPLARALRISVPELLSGE”: 0.0292; for “HMYYNQGILKSGASVYGEPGITSSHRLEIPSGSFVDIVQEKDEWVYYEKNHVNHGWVLRENIYIPSL”: 0.23.
As to “HMYYQEDHDIILEETEDVTDPYLITLRGYIFLNNLQWVAARQAFLSADERFRHRHYSALIAPIMQTIDNAA”, the “soluble fraction (log2)” value was -1.49.
Regarding “HMYYSERILTILEERGISPYRVSKETGISQSVFSNWKRKPTSRITAANLERLADYLGLPVEVLTG”, the “soluble fraction (log2)” value was found to be 0.134.

The values are drawn from the domain aggregation screens of Martell et al. (2025).
